Measured values as given in patent publication US20240368289A1 (LAEKNA THERAPEUTICS SHANGHAI, published 2024).
Substitutions are numbered along the chain they refer to.

B1: hit J (IgG) (antibody, V domains shown)
VH: QVQLVQSGAEVKKPGSSVKVSCKASGPRFQDLSISWVRQAPGQGLEWMGGIIPIYGTANYAQKFQGRVTITADESTSTAYMELSSLRSEDTAVYYCVKDLTWTNLGLDIWGQGTMVTVSS
VL: EIVMTQSPSSLSASVGDTVTITCRASQGVSRWLAWYQQKPGKAPRLLIYAASSLHSGVPSRFSGSGSGTHFTLTISSLQPEDFATYFCQQSYSTPFTFGPGTKLEIK
notes: IgG: VH and VL cloned into pFUSEss-CHIg-hG1 (human IgG1 heavy) and pFUSE2ss-CLIg-hk (human kappa), made in 293F cells; also called parental clone "J"
B2: IgG NGS-1 (CDR shuffling) (antibody, V domains shown)
VH: B1 VH with P27F, R28Q, Q30R, D31T, L32S, S33L, I51L, Y55F
VL: EIVMTQSPSSLSASVGDTVTITCRASQGVSRWLAWYQQKPGKAPRLLIYSAASSLYSGVPSRFSGSGSGTHFTLTISSLQPEDFATYFCQQSYSTPFTFGPGTKLEIK
notes: IgG: human IgG1 / kappa from pFUSE vectors, made in 293F cells
B3: IgG 3352 (CDR shuffling) (antibody, V domains shown)
VH: B1 VH with P27F, R28Q, Q30R, D31T, L32S, S33L, I51L, Y55F
VL: B1 VL with V29P, S52Q, S53G, H55S
notes: as for B2
B4: hit 275 (IgG) (antibody, V domains shown)
VH: B1 VH with P27F, R28Q, Q30R, D31T, L32S, S33L, I51L, Y55F
VL: B1 VL with V29P
notes: as for B2
B5: hit 21341 (LA01) (IgG) (antibody, V domains shown)
VH: B1 VH
VL: B1 VL with A50S, S52R, S53A
notes: IgG: human IgG1 / kappa from pFUSE vectors, made in 293F cells; also called ACVR2A Ab LA01
B6: hit 21155 (IgG) (antibody, V domains shown)
VH: B1 VH with P27F, R28Q, Q30R, D31T, L32S, S33L, I51L, Y55F
VL: B1 VL with A50G, S53P, H55S
notes: as for B2
B7: hit 21343 (IgG) (antibody, V domains shown)
VH: B1 VH
VL: B1 VL with A50N, S52R, H55F
notes: as for B2
B8: hit 21366 (IgG) (antibody, V domains shown)
VH: B1 VH
VL: B1 VL with A50W, S52A, S53H, H55Q
notes: as for B2
B9: hit 21169 (IgG) (antibody, V domains shown)
VH: B1 VH with P27F, R28Q, Q30R, D31T, L32S, S33L, I51L, Y55F
VL: B1 VL with S52Q, S53G, H55S
notes: as for B2
B10: IgG 6401 (CDR shuffling) (antibody, V domains shown)
VH: B1 VH
VL: B1 VL with V29P, A50S, S52R, S53A
notes: as for B2
B11: clone F (Fab) (Fab, V domains shown)
VH: B1 VH with P27R, R28E, Q30E, D31S, S33F, I51L, Y55F
VL: B1 VL with G28S, V29I, S30G, Q90E, T94N, F96Y
notes: Fab made in E. coli TG1 and purified on Ni-NTA
B12: clone E (Fab) (Fab, V domains shown)
VH: B1 VH with P27F, R28Q, Q30R, D31T, L32S, S33L, I51L, Y55F
VL: B1 VL with G28S, V29I, S30G, Q90E, T94N, F96Y
notes: as for B11
B13: clone D (Fab) (Fab, V domains shown)
VH: QVQLVQSGAEVKKPGSSVKVSCKASGQFYHSRISWVRQAPGQGLEWMGGLIPIFGTANYAQKFQGRVTITADESTSTAYMELSSLRSEDTAVYYCVKDLTWTNLGLDIWGQGTMVTVSS
VL: B1 VL with G28S, V29I, S30G, Q90E, T94N, F96Y
notes: as for B11
B14: clone H (Fab) (Fab, V domains shown)
VH: B1 VH with P27L, R28G, Q30H, D31N, L32F, S33Q
VL: B1 VL
notes: as for B11
B15: clone G (Fab) (Fab, V domains shown)
VH: B1 VH with P27R, R28H, Q30G, D31S, S33Q
VL: B1 VL
notes: as for B11
B16: clone B (Fab) (Fab, V domains shown)
VH: B1 VH with P27F, R28Q, Q30R, D31T, L32S, S33L
VL: B1 VL
notes: as for B11
B17: clone I (Fab) (Fab, V domains shown)
VH: B1 VH with P27E, R28S, Q30E, D31H, L32F, S33Q
VL: B1 VL
notes: as for B11
B18: clone C (Fab) (Fab, V domains shown)
VH: B1 VH with P27R, R28E, Q30E, D31S, S33F
VL: B1 VL
notes: as for B11
B19: clone K (Fab) (Fab, V domains shown)
VH: B1 VH with P27M, R28P, D31Q, L32S, S33Q
VL: B1 VL
notes: as for B11
B20: 366 (antibody, V domains shown)
VH: B1 VH with P27F, R28Q, Q30R, D31T, L32S, S33L, I51L, Y55F
VL: B1 VL with V29A, R31Q, A34K

The binders below were run against ACVR2A on HEK293T-B1 cells (ACVR2B knockout stable cell line) (UniProt P27037 20-513) (assay: cell-based or functional assay).
Sequence of ACVR2A on HEK293T-B1 cells (ACVR2B knockout stable cell line) (P27037 20-513): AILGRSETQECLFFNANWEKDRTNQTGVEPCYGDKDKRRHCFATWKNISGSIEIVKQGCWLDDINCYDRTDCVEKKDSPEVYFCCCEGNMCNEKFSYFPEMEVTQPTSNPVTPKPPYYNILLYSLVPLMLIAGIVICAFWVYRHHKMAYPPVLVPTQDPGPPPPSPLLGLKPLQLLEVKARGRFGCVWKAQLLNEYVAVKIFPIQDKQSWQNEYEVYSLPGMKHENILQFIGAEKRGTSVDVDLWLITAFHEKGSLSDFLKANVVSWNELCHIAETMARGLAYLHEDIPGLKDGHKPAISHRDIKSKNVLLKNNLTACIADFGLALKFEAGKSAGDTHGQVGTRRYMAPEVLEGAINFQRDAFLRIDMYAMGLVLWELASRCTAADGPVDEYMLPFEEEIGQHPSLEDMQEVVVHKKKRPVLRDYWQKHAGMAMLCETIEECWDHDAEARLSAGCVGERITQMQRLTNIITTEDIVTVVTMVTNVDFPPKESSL

In order of falling “IC50 (M), HEK293T-B1 CAGA-Luc, Activin A” value:
1. B7  9.07e-09 M
2. B5  6.24e-09 M
3. B1  5.12e-09 M
4. B4  4.91e-09 M
5. B8  3.64e-09 M
6. B2  3.28e-09 M
7. B9  2.66e-09 M
8. B3  2.28e-09 M
9. B10  1.93e-09 M
10. B6  1.78e-09 M

In order of rising “IC50 (M), HEK293T-B1 CAGA-Luc, GDF8” value:
1. B2  2.42e-10 M
2. B3  3.51e-10 M
3. B9  4.99e-10 M
4. B6  6.51e-10 M
5. B4  8.81e-10 M
6. B5  1.6e-09 M
7. B7  1.64e-09 M
8. B8  1.65e-09 M
9. B1  2.06e-09 M
10. B10  2.16e-09 M

The binders below were run against T1, recombinant protein comprising the human ACVR2A extracellular domain (ECD) fused to the human IgG1 Fc region (human, UniProt P27037 20-135) (assay: SPR, Biacore; format and antigen construct not given).
T1 construct: extracellular domain; also called ACVR2A-Fc; ACVR2A-FC; not shown: human IgG1 Fc region
T1 sequence (P27037 20-135): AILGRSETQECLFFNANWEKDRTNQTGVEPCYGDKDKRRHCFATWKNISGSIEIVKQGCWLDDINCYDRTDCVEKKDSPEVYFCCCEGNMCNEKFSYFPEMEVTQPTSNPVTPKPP

In order of rising Kd:
1. B8  0.153 nM
2. B5  0.172 nM
3. B6  0.211 nM
4. B7  0.43 nM
5. B3  0.584 nM
6. B2  0.638 nM
7. B9  0.663 nM
8. B10  0.865 nM
9. B4  0.872 nM

In order of rising koff:
1. B8  7.91e-06 s⁻¹
2. B7  4.51e-05 s⁻¹
3. B5  5.44e-05 s⁻¹
4. B6  8.07e-05 s⁻¹
5. B3  9.41e-05 s⁻¹
6. B2  0.000118 s⁻¹
7. B10  0.000135 s⁻¹
8. B9  0.000238 s⁻¹
9. B4  0.000319 s⁻¹

In order of falling kon:
1. B6  382000 M⁻¹ s⁻¹
2. B4  366000 M⁻¹ s⁻¹
3. B9  359000 M⁻¹ s⁻¹
4. B5  316000 M⁻¹ s⁻¹
5. B2  185000 M⁻¹ s⁻¹
6. B3  161000 M⁻¹ s⁻¹
7. B10  156000 M⁻¹ s⁻¹
8. B7  105000 M⁻¹ s⁻¹
9. B8  51600 M⁻¹ s⁻¹

Each binder was assayed against T1, recombinant protein comprising the … (assay: SPR, Biacore 3000 (1st test); ACVR2A-Fc captured by anti-human Fc, Fab injected).
Description: (§1) 2.2 Surface Plasmon resonance (SPR) measurements and affinity analysis by anti-human Fc capture format. After affinity panning, output-3 (03) of CDRH1 library were screened for binding ability by Fab ELISA and followed by NGS DNA sequencing. Based on binding Elisa and sequence abundance from NGS data, 11 clones were select for SPR analysis. Approximately 100-800 resonance units (RU) of antigen ACVR2A, was captured by anti-human Fc immobilized on a channel of a CM5 chip with an activated amine group. After immobilization, Fab antibodies were injected into the channels at 25° C. in HBS-EP buffer, with a flow rate of 30 μL/min, 1 min. When the data collection was finished in each cycle, the sensor surface was regenerated using 80 mM NaOH with a flow rate of 30 μL/min, 15 sec and reused chip in next cycle. After subtraction of reference surface and buffer injection, curve was locally fitted with BIA evaluation version 4.1 using a 1:1 Langmuir binding mode.
(§2) The affinity of selected 11 anti-ACVR2A monoclonal antibody clones were determined on Biacore®3000 and Biacore®8000 as shown in Table 4 below.

In order of rising Kd:
1. B19  0.489 nM
2. B15  0.612 nM
3. B12  0.664 nM
4. B18  1.14 nM
5. B17  1.84 nM
6. B14  2.25 nM
7. B16  6.81 nM
8. B11  11.8 nM
9. B13  12.8 nM

In order of falling koff:
1. B13  0.00232 s⁻¹
2. B16  0.0022 s⁻¹
3. B14  0.000698 s⁻¹
4. B17  0.000468 s⁻¹
5. B11  0.000288 s⁻¹
6. B19  0.000256 s⁻¹
7. B12  0.00019 s⁻¹
8. B15  0.000152 s⁻¹
9. B18  4.16e-05 s⁻¹

In order of rising kon:
1. B11  24400 M⁻¹ s⁻¹
2. B18  36500 M⁻¹ s⁻¹
3. B13  181000 M⁻¹ s⁻¹
4. B15  248000 M⁻¹ s⁻¹
5. B17  254000 M⁻¹ s⁻¹
6. B12  285000 M⁻¹ s⁻¹
7. B14  311000 M⁻¹ s⁻¹
8. B16  323000 M⁻¹ s⁻¹
9. B19  523000 M⁻¹ s⁻¹

What follows are binders tested against T1, recombinant protein comprising the … (assay: SPR, Biacore 8000 (2nd test); ACVR2A-Fc captured by anti-human Fc, Fab injected).
Description: as §1, §2

In order of rising Kd:
1. B19  0.212 nM
2. B15  0.443 nM
3. B12  0.501 nM
4. B17  1.01 nM
5. B14  1.38 nM
6. B11  1.47 nM
7. B18  3.08 nM
8. B16  5.91 nM
9. B13  10.4 nM

In order of rising koff:
1. B12  0.000153 s⁻¹
2. B18  0.000247 s⁻¹
3. B19  0.000259 s⁻¹
4. B15  0.000282 s⁻¹
5. B11  0.000331 s⁻¹
6. B17  0.000379 s⁻¹
7. B14  0.000901 s⁻¹
8. B16  0.00253 s⁻¹
9. B13  0.00285 s⁻¹

In order of falling kon:
1. B19  1.22e+06 M⁻¹ s⁻¹
2. B14  651000 M⁻¹ s⁻¹
3. B15  637000 M⁻¹ s⁻¹
4. B16  428000 M⁻¹ s⁻¹
5. B17  374000 M⁻¹ s⁻¹
6. B12  307000 M⁻¹ s⁻¹
7. B13  273000 M⁻¹ s⁻¹
8. B11  225000 M⁻¹ s⁻¹
9. B18  90300 M⁻¹ s⁻¹

The binders below were run against T2, ACVR2A mouse Fc fusion protein (mouse, UniProt P27037 20-135 (human entry), limits assumed) (assay: Activin A competitive ELISA; ACVR2A mouse Fc coated, antibody titrated, competitor activin A).
T2 construct: not shown: mouse Fc
T2 sequence (P27037 20-135 limits assumed): as the sequence (P27037 20-135) above
Description: (§3) 2.3 Activin A Competitive ELISA. To select ACVR2A hits that could block the interaction between ACVR2A and its ligand Activin A, a competitive ELISA assay was set up. 30 μL 4.17 nM ACVR2A mouse Fc fusion protein was coated in 384-well HB plate at 4° C. overnight following blocking with 5% BSA. Anti-ACVR2A Fab fragment or antibodies with different concentrations were added to the plate and incubated on an orbital shaker at room temperature for 1 hours to allow binding of the antibodies. […] After 5 times washing with TBST, 30 μl of 20 nM goat anti-activin A polyclonal antibody (Abcam, ab7153) in blocking buffer was added into plate and incubated at room temperature for 1 hour. Last, 30 μl of anti-goat IgG-HRP (Beyotime, A0181) in blocking buffer (1:500 dilution) was added to plate for another 30 min incubation following washing step. Luminescence signal was collected on Tecan infinite M1000 after adding 30 μl ECL substrate.

In order of rising IC50:
1. B2  1.86 nM
2. B10  1.95 nM
3. B3  2.07 nM
4. B8  4.15 nM
5. B7  4.74 nM
6. B5  4.83 nM
7. B1  5.04 nM
8. B6  5.13 nM
9. B9  5.3 nM
10. B4  6.04 nM

These binders were tested against T2, ACVR2A mouse Fc fusion protein (assay: Activin A competitive ELISA: ACVR2A mouse Fc fusion coated, IgG titrated, then 16.7 nM Activin A added; bound Activin A detected (luminescence)).
Description: as §3

For B20, the “IC50 (read off the curve)” value was about 9 nM.
